Data on 1 substance can be found in US20040229366A1.

The experiment addresses AP1 expressed in planta (35S::AP1 transgene, or ectopically activated in the tfl mutant) (Arabidopsis thaliana) (UniProt P35631). Kind of experiment: cell-based or functional assay.

Sequence of AP1 expressed in planta (35S::AP1 transgene, or ectopically activated in the tfl mutant) (Arabidopsis thaliana) (P35631 whole entry, change not shown): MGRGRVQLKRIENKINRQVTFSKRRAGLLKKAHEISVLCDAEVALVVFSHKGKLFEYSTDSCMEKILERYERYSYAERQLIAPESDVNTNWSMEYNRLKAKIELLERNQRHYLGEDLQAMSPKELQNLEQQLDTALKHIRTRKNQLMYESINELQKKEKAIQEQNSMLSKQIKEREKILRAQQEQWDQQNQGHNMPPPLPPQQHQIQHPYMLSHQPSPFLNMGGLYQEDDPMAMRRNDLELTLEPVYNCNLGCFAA

With “SEP3 expressed from the 35S::SEP3 transgene in Arabidopsis (from UniProt O22456 1-251)”, the rosette leaves formed before flowering, tfl mutation in combination with the 35S::SEP3 transgene (rosette leaves) was determined as 2 and the rosette leaves produced before flowering, 35S::AP1 35S::SEP3 doubly transgenic plants (rosette leaves) turned out to be 2.
